For assay [1], the target named is T1, Recombinant canine IL23 (single chain p40 + linker + p19, Avitag, polyHis tag) (canine).
T1 construct: Single chain p40-linker-p19 with a tag for site specific biotinylation and a polyHis tag, expressed in CHO cells as a monomeric protein; also called canine IL23 polypeptide
T1 chain: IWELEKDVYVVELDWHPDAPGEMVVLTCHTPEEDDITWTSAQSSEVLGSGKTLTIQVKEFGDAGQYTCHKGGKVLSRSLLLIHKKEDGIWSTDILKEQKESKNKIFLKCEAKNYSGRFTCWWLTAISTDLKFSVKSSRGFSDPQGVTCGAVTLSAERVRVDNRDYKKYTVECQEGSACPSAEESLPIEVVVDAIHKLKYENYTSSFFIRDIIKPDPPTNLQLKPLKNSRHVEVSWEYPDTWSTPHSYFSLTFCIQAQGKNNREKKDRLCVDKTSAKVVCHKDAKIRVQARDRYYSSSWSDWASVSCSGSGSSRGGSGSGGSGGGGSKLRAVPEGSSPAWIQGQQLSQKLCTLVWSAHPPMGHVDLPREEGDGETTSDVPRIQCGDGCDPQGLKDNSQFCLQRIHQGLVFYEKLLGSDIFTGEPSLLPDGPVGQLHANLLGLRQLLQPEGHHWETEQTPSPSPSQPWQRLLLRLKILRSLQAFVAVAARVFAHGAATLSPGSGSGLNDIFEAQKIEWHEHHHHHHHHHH
Description: Biacore affinity assay ('Active' = specific binding to canine IL23).

For the next assay, the target named is T2, Canine p40 polypeptide (canine, UniProt Q28268 23-329).
T2 sequence (looked up): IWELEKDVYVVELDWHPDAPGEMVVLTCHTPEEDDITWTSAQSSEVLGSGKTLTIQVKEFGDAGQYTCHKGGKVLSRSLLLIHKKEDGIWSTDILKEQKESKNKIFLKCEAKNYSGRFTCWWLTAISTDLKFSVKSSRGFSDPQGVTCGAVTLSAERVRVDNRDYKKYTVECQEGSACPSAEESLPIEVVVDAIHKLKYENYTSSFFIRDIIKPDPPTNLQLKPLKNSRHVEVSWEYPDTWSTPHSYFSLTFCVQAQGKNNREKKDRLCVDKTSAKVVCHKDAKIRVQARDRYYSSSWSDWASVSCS
The assay is described as follows: SPR, Biacore 8K, antibody captured on Protein A chip, antigen as analyte, 25 C. As to the method: (§1) This study was performed to measure the binding affinity of anti-IL23 antibodies to IL23 and p40 antigens using a Biacore 8K.
(§2) All the data were processed using the Biacore 8K Evaluation software version 3.0. Flow cell 1 and blank injection of buffer in each cycle were used as double reference for Response Units subtraction.

In assay [2] the target is T1, Recombinant canine IL23 (single chain …). Described as above. As to the method:
as §1, §2

Assay [3] deals with T3, Canine TNF-alpha (Sino Biologicals) (canine, UniProt P51742 77-233).
T3 construct: Bought protein; also called Canine TNFα
The description is as above. As to the method:
This study was performed to measure the binding affinity of antibodies to antigens using a Biacore 8K.
as §2

T3 sequence (P51742 77-233 limits assumed): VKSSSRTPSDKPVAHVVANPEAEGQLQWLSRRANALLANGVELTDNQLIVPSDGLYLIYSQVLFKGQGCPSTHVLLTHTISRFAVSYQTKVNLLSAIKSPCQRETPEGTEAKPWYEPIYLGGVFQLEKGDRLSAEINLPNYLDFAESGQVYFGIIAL

B1: Anti-IL23 caninized VL variant V2 / caninized VH variant V6 (antibody, human IgG1, V domains shown)
VH: EVQLVESGGDLVKPGGSLRLSCKGSGYSFTTYWLGWVRQAPGKGLQWIGIMSPVDSDIRYADAVKGRFTVSRDNAKRTLYLQMNSLRAEDTAIYYCARRRPGQGYFDFWGQGTLVTVSS
VL: DIVMTQTPLSLSVSPGEPASISCRASQGISSWLAWYLQKAGQSPRLLPYAASSLQSGVPDRFSGSGSGTDFTLRIGRVEAEDAGIYYCQQYNIYPYTFGQGTRLEVR
notes: also called VL V2 + VH V6
Take B1: the binding result in assay [1] was “binds”.

B2: Chimeric anti-IL23 antibody (clone C340 VL and VH domains fused to canine kappa light chain constant region and canine IgG-B constant region) (antibody, V domains shown)
VH: EVQLVQSGAEVKKPGESLKISCKGSGYSFTTYWLGWVRQMPGKGLDWIGIMSPVDSDIRYSPSFQGQVTMSVDKSITTAYLQWNSLKASDTAMYYCARRRPGQGYFDFWGQGTLVTVSS
VL: DIQMTQSPSSLSASVGDRVTITCRASQGISSWLAWYQQKPEKAPKSLIYAASSLQSGVPSRFSGSGSGTDFTLTISSLQPEDFATYYCQQYNIYPYTFGQGTKLEIKR
notes: also called Anti-IL23-VH-VL; Anti-IL23 (full length IgG form)
In the assay with Canine p40 polypeptide, B2 yielded a Kd of 1.02 nM, a koff of 0.00478 s⁻¹ and a kon of 4.68e+06 M⁻¹ s⁻¹. For the same molecule, in assay [2], the dissociation constant (Kd) was found to be 0.58 nM, the off-rate constant (koff) was 0.00338 s⁻¹ and the kon was determined as 5.83e+06 M⁻¹ s⁻¹.

B3: Anti-IL23 C340 VL / caninized VH variant V1 (antibody, V domains shown)
VH: EVQLVQSGAEVKKPGASVKVSCKGSGYSFTTYWLGWVRQAPGAGLDWMGIMSPVDSDIRYAGKFQGQVTMSVDTSTSTAYMELSSLRAGDIAVYYCARRRPGQGYFDFWGQGTLVTVSS
VL: DIQMTQSPSSLSASVGDRVTITCRASQGISSWLAWYQQKPEKAPKSLIYAASSLQSGVPSRFSGSGSGTDFTLTISSLQPEDFATYYCQQYNIYPYTFGQGTKLEIK
notes: also called VL C340 + VH V1
On to B3, for which the binding result in assay [1] is recorded as “binds”.

B4: Caninized anti-IL23 with VL domain V2.1 and VH domain V1.1 (antibody, V domains shown)
VH: EVQLVQSGAEVKKPGASVKVSCKGSGYSFTTYWLGWVRQAPGAGLDWMGIMSPVDSDIRYSPSFQGQVTMSVDTSTSTAYMELSSLRAGDIAVYYCARRRPGQGYFDFWGQGTLVTVSS
VL: DIVMTQTPLSLSVSPGEPASISCRASQGISSWLAWYQQKAEKAPKSLIYAASSLQSGVPDRFSGSGSGTDFTLRIGRVEAEDAGIYYCQQYNIYPYTFGQGTRLEVR
notes: also called VL V2.1 + VH V1.1; exemplary caninized anti-IL23
In the case of B4, in assay [1], the binding result was “binds”.

B5: Caninized anti-TNFα D2E7 antibody (caninized VL + canine kappa constant region; caninized VH + canine IgG-B constant region) (antibody, V domains shown)
VH: EVQLVESGGDLVKPAESLRLSCVASGFTFDDYAMHWVRQAPGKGLEWVSAITWNSGHIDYADSVEGRFTISRDNARNTLYLQMNSLRAEDTAVYYCAKVSYLSTASSLDYWGQGTLVTVSS
VL: DIVMTQTPLSLSVSPGEPASISCRASQGIRNYLAWYQQKPGKAPKLLIYAASTLQSGVPDRFSGSGSGTDFTLRIGRVEAEDAGIYYCQRYNRAPYTFGQGTRLEVRR
notes: Expressed in Expi293F cells, 150 kDa, captured on a Protein A chip; also called Caninized Anti-TNF-VH-VL
As for B5, in assay [3], the Kd worked out at 3.91 nM, the koff worked out at 0.000818 s⁻¹ and the kon was determined as 209000 M⁻¹ s⁻¹.

The values above are taken from US20260209333A1 (VETMAB BIOSCIENCES, published 2026).
